± gives the uncertainty stated by the source.
Assay: amyloid nucleation score (Sup35N fusion, yeast selection) (log enrichment); library NNK3; higher = more nucleation; inactive = no reads after selection
How it was run: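 Psi-negative yeast expressed Sup35N fused to peptides of 20 random codons. They were induced 24 hours with 100 μM copper sulfate, grown 7 days at 30°C without adenine and uracil, and their plasmid inserts from input and output were Illumina-sequenced. The nucleation score is the DiMSum log enrichment of output over input reads, centred on the mode score of non-aggregating sequences. Sequences with under 100 input reads were excluded.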

Substance	amyloid nucleation score
VGSNTVM	-0.572 ± 0.84
YFRQFSVYYLFFNLMYILHA	inactive
YGPSLQNSWDPFPRASSPVI	inactive
VTCSYQMVLWAAFVVKCPAL	0.817 ± 0.21
VRSFFYRSLYQCISRNPCCA	inactive
YSMQGYRCMYLGDNVAVLAF	inactive
LAALLKASWVSHVVSWNKRT	inactive
TICPWNATLGGKGDRSMK	inactive
MLRDFFQ	inactive
IHHQC	inactive
NSNSGFLVSFLWLSFWNSIS	inactive
RANSIC	inactive
FTEKGGLPC	inactive
ETGYKCAKGFYRCTGRGMVW	inactive
FGRIGSYWTMVQ	inactive
LHIGLNS	inactive
VFVVQNGMPTRFECVLGVQR	inactive
LSHSRSNL	inactive
RSGLVRSRCSRI	inactive
DLGHQMVVRRHVLFLICCCN	inactive
IVRSF	inactive
LGCRYFHYAILNPHQLDKIG	inactive
FVVWCDVTGS	inactive

Substance	amyloid nucleation score
DAGELNILI	inactive
VEATSTRGDTAPVPERGMLG	-1.01 ± 1.7
CNKYMKVCLGMGKVQTKNGV	inactive
LGITNGRL	inactive
ICELLRFDPMLTCFRM	0.77 ± 0.2
ESLEMVWPRAMR	inactive
CQLRGEFDSVAVNNVCIAML	inactive
TPHESLRTCFLTKR	inactive
KGLYV	inactive
YVLSATG	inactive
VSYISDQGC	inactive
AYMLGITQNNGNHLNSSRRR	inactive
CRFSGCNESLGWKVGSTLVM	inactive
TTEFKIDR	inactive
CEWNERRRDGSSRNFDLLSQ	-0.045 ± 1.1
TCLLMSPVFMVYFLLKTMNS	inactive
YIVLAPCWCHIGSIDLAVPH	3.01 ± 0.06
LCSHLEVDSL	inactive
DIIYTFHHAVNRLNKIFSV	inactive
LRWRHGCIR	inactive
SDLQVIWFMFFCSTLVRDWI	inactive
IYTARIVTFCTFFRRY	inactive
ARSIFEVTRHEAAGRMSVFS	-0.01 ± 0.96

Substance	amyloid nucleation score
ITWTRGDVGQTHNSAMLSHT	inactive
GLANNYGQYRITSRAKLPRQ	inactive
LNCAILASHSHYTK	inactive
YASFTK	inactive
CGPHTSYRTMIVLNIRYNFY	1.46 ± 0.099
QSYDL	inactive
RWGLYLR	inactive
RWWVMLLLVRWKRHQDTAYV	inactive
VFMGQDLWMSLGAEDEDLAW	inactive
VGTMKNLERVRVCYD	inactive
CKMLNYFLCT	1.1 ± 0.13
TRTHPDVNRAKMDVKGDAKI	inactive
YCMGYSMHIV	inactive
VTRSDGTTISYNISIKLGKG	2.2 ± 0.071
SIKYSGFMWTWVNLLDPTVP	inactive
LPYPPAITALPRPCCVNHRV	inactive
KIVLDRARDWQL	0.094 ± 0.41
LIRTARSLYWAYVHLAVSWR	inactive
NKVISSSLTFRFIKVQFIYH	inactive
YVKIDSRFHGVSHFRFHTAY	inactive
EMAEAGTFEGYSLSVSVSAD	inactive
